Source: publication PMC5483954, “Different specificities of two aldehyde dehydrogenases from Saccharomyces cerevisiae var. boulardii” (Bioscience Reports, 2017)

Tests used:
[1] = target: Saccharomyces cerevisiae var. boulardii mitochondrial aldehyde dehydrogenase Ald4p (Saccharomyces cerevisiae var. boulardii (NCYC 3264)) (UniProt P46367); assay: SEC; Sephacryl S-300, buffer G (50 mM Tris/HCl, 17 mM Tris-base, 150 mM NaCl, pH 7.4), 1 ml/min; 200 ul of 60 uM protein by the methods (legend: Ald4p ~20 uM, Ald6p ~60 uM); mass from calibration with standard proteins
[2] = target: the molecule itself; assay: cross-linking; BS3 (50-800 uM) with 15 uM protein in 100 mM sodium phosphate pH 7.4, 30 C, 35 min; products on SDS/PAGE (10% gel)
[3] = target: the molecule itself; assay: SDS/PAGE of the untreated purified protein (SDS- and heat-resistant oligomers); purified protein without cross-linker on SDS/PAGE (10% gel); band not reduced by additional DTT (2 mM)
[4] = target: the molecule itself; assay: SEC; Sephacryl S-300, buffer G (50 mM Tris/HCl, 17 mM Tris-base, 150 mM NaCl, pH 7.4), 1 ml/min; 200 ul of 60 uM protein by the methods (legend: Ald4p ~20 uM, Ald6p ~60 uM); mass from calibration with standard proteins

## Saccharomyces cerevisiae var. boulardii mitochondrial aldehyde dehydrogenase Ald4p (from UniProt P46367 25-519) (enzyme)
[1]
  stoichiometry N: 3

B1: Saccharomyces cerevisiae var. boulardii cytosolic aldehyde dehydrogenase Ald6p (wild-type) (enzyme, UniProt P54115 1-500, looked up)
chain: MTKLHFDTAEPVKITLPNGLTYEQPTGLFINNKFMKAQDGKTYPVEDPSTENTVCEVSSATTEDVEYAIECADRAFHDTEWATQDPRERGRLLSKLADELESQIDLVSSIEALDNGKTLALARGDVTIAINCLRDAAAYADKVNGRTINTGDGYMNFTTLEPVGVCGQIIPWNFPIMMLAWKIAPALAMGNVCILKPAAVTPLNALYFASLCKKVGIPAGVVNIVPGPGRTVGAALTNDPRIRKLAFTGSTEVGKSVAVDSSESNLKKITLELGGKSAHLVFDDANIKKTLPNLVNGIFKNAGQICSSGSRIYVQEGIYDELLAAFKAYLETEIKVGNPFDKANFQGAITNRQQFDTIMNYIDIGKKEGAKILTGGEKVGDKGYFIRPTVFYDVNEDMRIVKEEIFGPVVTVAKFKTLEEGVEMANSSEFGLGSGIETESLSTGLKVAKMLKAGTVWINTYNDFDSRVPFGGVKQSGYGREMGEEVYHAYTEVKAVRIKL
notes: Ald6p, cytosolic aldehyde dehydrogenase of S. cerevisiae var. boulardii NCYC 3264; differs from the S. cerevisiae S288c protein by valine for isoleucine at position 163; printed mass 54.4 kDa; Removal of the tag is not mentioned; also called cytosolic Ald6p; wild-type Ald6p; source: E. coli Rosetta (DE3), purified (cobalt agarose, dialysis)
[2]
  stoichiometry N: 2
[3]
  stoichiometry N: ~4
[4]
  stoichiometry N: 4
